The text below walks through data of patent US20180057581A1 (MorphoSys, published 2018).

By IC50 is commonly meant the point on the concentration scale where inhibition reaches its midpoint. Broadly, the Kd is the equilibrium constant for the complex coming apart.

Some results are limits rather than exact numbers.

The target in experiment [1] is T1, Recombinant human sgM-CSF (human, UniProt P09603 33-255).
T1 sequence: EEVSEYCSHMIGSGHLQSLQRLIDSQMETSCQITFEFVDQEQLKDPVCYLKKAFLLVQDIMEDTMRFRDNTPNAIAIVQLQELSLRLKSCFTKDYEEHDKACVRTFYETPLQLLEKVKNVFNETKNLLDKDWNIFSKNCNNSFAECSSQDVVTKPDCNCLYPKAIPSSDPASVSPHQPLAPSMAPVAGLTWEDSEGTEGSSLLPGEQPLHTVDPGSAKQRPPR
The experiment in a line: cell-based or functional assay.

The target in experiment [2] is T2, Recombinant cynomolgus monkey sgM-CSF (cynomolgus (Macaca fascicularis), UniProt P09603 33-255 (human entry), limits assumed).
T2 chain: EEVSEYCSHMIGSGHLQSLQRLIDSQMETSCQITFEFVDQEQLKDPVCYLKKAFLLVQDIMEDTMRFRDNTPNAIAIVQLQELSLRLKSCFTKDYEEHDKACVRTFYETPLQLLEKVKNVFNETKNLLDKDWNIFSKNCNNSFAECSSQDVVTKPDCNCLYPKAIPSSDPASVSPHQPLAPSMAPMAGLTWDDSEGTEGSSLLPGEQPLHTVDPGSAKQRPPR
Description: cell-based or functional assay.

Experiment [3] deals with T2, Recombinant cynomolgus monkey sgM-CSF. The experiment in a line: Receptor binding assay, inhibition of cynomolgus M-CSF binding to M-CSF receptor (competitor CSF1-R-Fc); Table 12 summary. The protocol:
Complexes were then transferred to 384 well MSD plates coated with 2 μg/ml of the corresponding receptor. Plates were then washed and incubated with the streptavidin/ECL conjugate for 2 h with shaking at room temperature. 35 μl MSD read buffer T with surfactant was then added per well and subsequently measured using MSD Sector Imager 6000.

The target in a further experiment is GM-CSF (Homo sapiens (Human), UniProt P04141 18-144). Description: not described (Table 12, criterion Binding).
In experiment [4] the target is T1, Recombinant human sgM-CSF. Description: Receptor binding assay, inhibition of human M-CSF binding to M-CSF receptor (competitor CSF1-R-Fc); Table 12 summary.
The next experiment concerns the target T3, human M-CSF (human, UniProt P09603 33-255, limits assumed).
T3 construct: also called M-CSF (human); CSF-1
T3 sequence: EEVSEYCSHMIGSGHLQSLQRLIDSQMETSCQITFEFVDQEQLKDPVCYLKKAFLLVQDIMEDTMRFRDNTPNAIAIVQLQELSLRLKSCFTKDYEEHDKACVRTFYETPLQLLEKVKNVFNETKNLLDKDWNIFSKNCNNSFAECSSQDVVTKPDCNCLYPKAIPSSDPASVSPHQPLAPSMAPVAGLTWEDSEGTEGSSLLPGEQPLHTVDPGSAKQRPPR
Description: ELISA. The procedure:
(§1) BSA was used as a negative control substrate.
(§2) After blocking of plates with 5% skim milk powder in PBS, Fab-containing E. coli lysates, IgG-containing cell culture supernatants or purified IgG or Fab proteins were added. Binding of Fabs or IgGs was detected by F(ab)₂ specific goat anti-human IgG conjugated to alkaline phosphatase (Dianova Cat# 109-055-097; diluted 1:5000) using Attophos fluorescence substrate (Roche, #11681982001). Fluorescence emission at 535 nm was recorded with excitation at 430 nm.

Experiment [5] concerns the target T2, Recombinant cynomolgus monkey sgM-CSF. Description: ELISA. The procedure: as §1, §2
A general note: ELISA stands for enzyme-linked immunosorbent assay.

The target of experiment [6] is T1, Recombinant human sgM-CSF. Description: Table 12 summary, criterion Binding, Human M-CSF; assay and antibody format not named there. The procedure: The monovalent affinity of the antibodies of the present disclosure was determined by soluble equilibrium titration (Haenel et al. (2005) Anal Biochem 339, 182-4).

Sequence of GM-CSF (P04141 18-144 limits assumed): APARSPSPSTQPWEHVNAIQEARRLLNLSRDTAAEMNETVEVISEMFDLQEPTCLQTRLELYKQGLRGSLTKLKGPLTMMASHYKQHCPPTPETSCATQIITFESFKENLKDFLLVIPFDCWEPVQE

B1: HeRX1-10G1 (format not stated) (antibody, V domains shown)
VH: QVQLQESGPGLVKPSQTLSLTCTVSDYSITSDYAWNWIRQFPGKGLEWMGYISYSGSTSYNPSLKSRITISRDTSKNQFSLQLNSVTAADTAVYYCASFDYAHAMDYWGQGTTVTVSS
VL: DIVLTQSPAFLSVTPGEKVTFTCQASQSIGTSIHWYQQKTDQAPKLLIKYASESISGIPSRFSGSGSGTDFTLTISSVEAEDAADYYCQQINSWPTTFGGGTKLEIKR
notes: Prior art antibody
B1: the “Cell viability assay (IC50), Human M-CSF” value in experiment [1] amounted to 4 pM. For the same molecule, the “Cell viability assay (IC50), Cynomolgus M-CSF” value in experiment [2] came out at 4 pM. In addition, the IC50 in experiment [3] came to 28 pM; in experiment [4] it was 27 pM. Besides, the binding result with GM-CSF was “no binding”. Also, the ELISA fluorescence units (with human M-CSF; in experiment [5]) was over 35000 units throughout. Also, the Kd in experiment [6] is over 1000 pM.

B2: 8.10.3F (format not stated) (antibody, V domains shown)
VH: EVQLVESGGGLVQPGGSLRLSCAASGFTFSSFSMTWVRQAPGKGLEWVSYISSRSSTISYADSVKGRFTISRDNAKNSLYLQMNSLRDEDTAVYYCARDPLLAGATFFDYWGQGTLVTVSS
VL: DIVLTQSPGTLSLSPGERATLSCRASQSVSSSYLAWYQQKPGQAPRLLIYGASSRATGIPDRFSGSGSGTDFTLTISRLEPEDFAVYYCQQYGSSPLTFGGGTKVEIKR
notes: Prior art antibody; also called 8.10.F3
With B2, in experiment [1], the “Cell viability assay (IC50), Human M-CSF” value is 71 pM. Also, the “Cell viability assay (IC50), Cynomolgus M-CSF” value in experiment [2] is 85 pM. The IC50 is 21 pM in experiment [3] and 31 pM in experiment [4]. Moreover, the binding result in the experiment with GM-CSF is listed as “no binding”. For the same molecule, the ELISA fluorescence units (in the experiment with human M-CSF; in experiment [5]) was over 35000 units each time. Further, the dissociation constant (Kd) in experiment [6] came out at 38 pM.
